pKd: −log10 of the molar value.
Biological target: Recombinant human glutamine synthetase (GS) (human) (UniProt P15104)
Assay: MST

Sequence of UniProt P15104 (P15104 whole entry): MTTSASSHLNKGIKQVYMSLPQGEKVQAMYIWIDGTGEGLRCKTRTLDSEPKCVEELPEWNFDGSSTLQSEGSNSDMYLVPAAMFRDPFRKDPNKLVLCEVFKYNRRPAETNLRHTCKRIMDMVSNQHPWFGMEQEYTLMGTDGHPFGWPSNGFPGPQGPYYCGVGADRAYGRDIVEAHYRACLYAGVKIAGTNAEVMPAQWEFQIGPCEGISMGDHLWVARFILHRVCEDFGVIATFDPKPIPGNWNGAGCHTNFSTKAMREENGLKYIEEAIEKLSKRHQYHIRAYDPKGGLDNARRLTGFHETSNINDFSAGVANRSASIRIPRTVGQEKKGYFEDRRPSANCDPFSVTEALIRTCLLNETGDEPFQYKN

contryphan-Bt (peptide)
pKd: 4.13
